Data as given in the nanobody polyreactivity screen of Harvey et al. (2022).

Test: yeast display, Sf9 membrane polyspecificity reagent, FACS + sequencing; frameworks hold sequencing errors
How it was run: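 Genes from sorted yeast were amplified by colony PCR, read by MiSeq 2 × 250 sequencing and filtered on CDR length. These cells carried a synthetic nanobody library in Saccharomyces cerevisiae BJ5465 and were sorted by FACS into low and high (top ~1%) gates on anti-HA and streptavidin fluorescence. Polyreactivity is labelled according to the gate of origin.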

Row | Sequence | polyreactivity (PSR sort gate)
1 | QVQLVESGGGLVLAGGSLRLSCAASGLTFEYNAMGWYRQAPGKEGELVASISSGGGTNYADSVKGRFTISRDNAKHTVYLQMNSLKPEDTAVYYCATDNYDWSSWAFRGYWYDYWGQGTQVTVSS | low polyreactivity
2 | QVQLVESGGGLVLAGGSLRLSCAASGRIFYQNAMGWYRQAPGKERELVAGITRGGSTYYADSVKGRFTISRDNAKNTVYLQMNSLKPEETAVYYCAVAFWRTKWYDYWGQGTQVTVSS | low polyreactivity
3 | QVQLVESGGGLVLAGGSLRLSCAASGRTFKKYAMGWYRQAPGKVRELVAAITSGGSTYYADSVKGRFTISRDNAKNTVYLQMNSLKPEDTAVYYCAAASSQHGNTYYYWGQATQVTVSS | high polyreactivity
4 | QVQLVESGGGLVLAGGSLRLSCAASGSIFIHYAMGWYRQARGKERELVAAITGDGNTTYADSVKGRFTISRDNAQNTVNLPINSLKPEDTAVYSCAVTIVDYVWAFDYWGQGTQVNVSS | low polyreactivity
5 | QVQLVESGGGLVLAGGSLRLSCAASGSIFNVYAMGWYRQAPGKERELVASITRRRTNYADSVKGRFTISRDNAKNTVYLQMNSLKPEDTAVYYCAATTYVRQYATYDYWGQGTQVTVSS | high polyreactivity
6 | QVQLVESGGGLVLAGGSLRLSCAASGSIFWVNAMGWYRQAPGKERELVAAINYSDGSTSYADSVKGRFTISRDIAKNTVYLQMNSLKPEDTAVYYCNAESFELMYYWGQGTQVTVSS | low polyreactivity
7 | QVQLVESGGGLVLAGGSLRLSCAASGSILGTYAMGWYRQAPGKERELVARISRGGSTNYADSVKGRFTISRDNAKNTVYLQMNSLKPEDTAVYYCAKRLYLPESWRYYYWGQGTQVTVSS | high polyreactivity
8 | QVQLVESGGGLVLAGGSLRLSCAASGSTFGGYAMGWYRQATGKERELVAAISGSGVRTYYADSVKGRFTISRDNAKNTVYLQMNSRKPEDTAVYYCAKRVRYPGDRYYYWGQGTQVTVSS | high polyreactivity
9 | QVQLVESGGGLVLEGGSLRLSCPASGRIFTWNAMGWYRHAPGKERELVASISRSGTSTYYADSVKGRFTISRDNAKNTVYLQMNSLKPEDTAVYYCAAKRYGYKMYYWGQGTQVTVSS | high polyreactivity
10 | QVQLVESGGGLVLPGGSLRLSCAASGITFTYNAMGWYRQAPGQERELVAAISYSGGSTYYADSVKGRFTISRDNAKNTVYLQMNSLTPEDTAVYYCARRRLLYSGGKSGYYGYYYWGQGTQVNVSS | high polyreactivity
11 | QVQLVESGGGLVLPGGSLRLSCAASGSTLYPYAMGWYRQAPGKERELVAAITYGGTSTYYADSVKGRFTISRDNAKNTVYLQMNSQKPEDTALYYCAARGGTTIRYDYWGQGTQVTVSS | high polyreactivity
12 | QVQLVESGGGLVPAGGSLRLSCAASGFTFPAYTRGWYRPAPGKERELVAAITSSGGNTYYADSVKGRFTISRDNAKNTVYLQMNSLKPEDTAVYYCNADASSSPYTDRQYIGADDSWGQGTQVTVSS | low polyreactivity
13 | QVQLVESGGGLVPAGGSLRLSCAASGFTLYRYVMGWYRQAPGKERELVAAITRGGNTNYADSVKGRFTISRDNAKKTVYLQKNSLKPEDTAVYDCARRYRDYGRYGYWGQGTQVTVSS | high polyreactivity
14 | QVQLVESGGGLVPAGGSLRLSCAASGRTFFPYAMAWYRQAPGKEREFVAAITWSGGSTTYADSVKGRFTISRDNAKNTVYLQMNSLKPEDTAVYYCNAGRRRSYSYDYWGQGTQVTVSS | low polyreactivity
15 | QVQLVESGGGLVPAGGSLRLSCAASGRTFPYYDMGWYRQAPGKERELVAAITSGGTTNYADSVKGRFTISRDNAKNTVYLQMNSLKPEDTAVYYCAAGSPWYYFSSYGYWGQGTQVTVSS | low polyreactivity
16 | QVQLVESGGGLVPAGGSLRLSCAASGRTFWIYAMGWYRQAPGKERELVASIRWSTGNTNYADSVKGRFTISRDNAKNTVYLQMNSLLPEDTAVYYCNARRRWRGGPTYIYWGQGTQVTVSS | high polyreactivity
17 | QVQLVESGGGLVPAGGSLRLSCAASGRTFYRYARGWYRKAHGKERELVASITRDGRTNYADSVKGSFTISRDNAKNTVYLQMNSLKPEDTAFYYCNAKLKITHSSSDYWGQGTQVTVSS | high polyreactivity
18 | QVQLVESGGGLVPAGGSLRLSCAASGSIFEGNAMGWYRQAPGKERELVAAISTTGGITYYADSVKGRFTISRDNAKNTVYLQMNSLKPEETAVYYCAADPSQPRIDSSNYDYWGQGTQVTVSS | low polyreactivity
19 | QVQLVESGGGLVPAGGSLRLSCAASGSTFIAYTRGWYRKAPGKERELVAAISGTGGTTYADSVKGRFTISRDNAKNTVYLQMNSLKPEDTAVYYCAAQYRYTYWGQATQVTVSS | low polyreactivity
20 | QVQLVESGGGLVPAGGSLRLSCAASGYIFDYNAMGWYRQAPGKERELVAAITFRDGSTYADSVKGRFTISRDNAKNTVYLQMNSLKPEDTAVYYCNRRSQVHSHSKHDYWGQGTQVTVSS | low polyreactivity
21 | QVQLVESGGGLVPAGGSLRLSSAASGRIFVRNAMGWYRQAPGKERELVAAITRTGASTYYADSVKGRFTISRDNEKNTVYLQMNSLKPEDTAVYFFAAVWGWPYWVYRYDYWGQGTQVTVSS | high polyreactivity
22 | QVQLVESGGGLVPAGGSLRLSWAASGRIFPRNTMGWYRQAPGKERELVAAISVSGGSTYYADSVKGRFTISRDNAKNTVYLQMNSLKPEDTAVYYSAARSARLEYYYWGQGTQVTVSS | high polyreactivity

Row | Sequence | polyreactivity (PSR sort gate)
23 | QVQLVESGGGLVQAAGSLRLSCAASGGTFWFYDMGWYRQAPGKERELVAAINSDGSTYYADSVKGRFTISRDNAKNTVYLQMNSLKPEDTAVYYCAVDQTYVGEGLSEVDVGYWGQGTQVTVSS | low polyreactivity
24 | QVQLVESGGGLVQAAGSLRLSCAASGITFVTYDRGWYRQAPGKEWELVAAISRSGVRTYYADSVKWRFTISRDNAKNTVYLQMNSLKPEDTAVYYCAAERKNKYDYWGLGTQVTVSS | high polyreactivity
25 | QVQLVESGGGLVQAAGSLRLSCAASGNTFRWYVMGWYRQAPGKERELVAAITSSGSNTYYADSVKGRFTISRDNAKNTVYLQMNSLKPEDTAVYYCAARNYGPYDYWGQGTQVTVSS | low polyreactivity
26 | QVQLVESGGGLVQAAGSLRLSCAASGRTFGQYVMGGSRQAPGKERELVAAISGIGGSTYYADSVKGRFTISRDNAKNTVYLQMNSLIPDDTAVYYCAVELYWYPGYDYWGQGTQVTVSS | low polyreactivity
27 | QVQLVESGGGLVQAAGSLRLSCAASGSIFGPNAMGWYRQAPGKERELVASITLSGGSTYYADSVKGRFTISRDNAKNNVYLQMNSLKPVDTAVYYCNADLLPADAPLWVTGGDYWGQGTQVTVSS | low polyreactivity
28 | QVQLVESGGGLVQAAGSLRLSCAASGSIFVRNAMGWYRQAPGKEREFVAAISWRGGTYYADSVKGRFTISRDNAKNTVYLQMNSLKPEDSAVYYCAARLYPTPGNGALGKTAWVYYWGQGTQVTVSS | low polyreactivity
29 | QVQLVESGGGLVQAAGSLRLSCAASGSIFYNYAMGWYRQAPGKERELVAAITSGGITYYADSVKGRFTISRDNAKNTVYLQMNSLKPEYTAVYYCAAESLTGYGHYDYWGQGTQVTVSS | low polyreactivity
30 | QVQLVESGGGLVQAAGSLRLSFAASGGIFSYYVMGWYRQAPGKEREFVASITQRGRTYYADSVKGRFTISRDNAKNTVYLQMNSLKPEDTAVYYCAAGIYAFRRHREEYDYWGQGTQVTVSS | high polyreactivity
31 | QVQLVESGGGLVQAAGSLRLSYAASGSTFVYNGMGSYRQAPAKERELVATISSTGSTNYADSVKGRFTISRDNAKNTVYLQMNSLKPEDTAVYYCATEYITYRAYDYWGQGTQVTVSS | low polyreactivity
32 | QVQLVESGGGLVQAGAILRLSCAASGYIFVSYYLGWYRQAPGKEREVVAAISWRGGSTFYADSVKGRFTISRDNAKNTVYLQMNSLKPEDTAVFYCAVDDWLDWLFADFGYWGQGTQVTVSS | low polyreactivity
33 | QVQLVESGGGLVQAGASLRLSCAASGFIFGGNAMGWYRQAPGKERELVAAISTTGGRTYYADSVKGRFTISRDNAKNTVYLQMNSRKPEDTAVYYCNAGYDSYCRYYWYWYSFNYWGQGTQVNVSS | high polyreactivity
34 | QVQLVESGGGLVQAGASLRLSCAASGFNFDTNTIGWYRQAPGKERELVAVITRRGGRTYDADSVKGRFTISRDNAKNRVYLQMNSLKPVDTAVYYFNSVSYGQYGWGEGTQVTVSS | high polyreactivity
35 | QVQLVESGGGLVQAGASLRLSCAASGFTFTPYAMGWYRQAPGKERELVAGITSGVGRKYADSVKGRFTISRDNAKNTVYLQMNSLKPEDTAVYFCAARYDHWGQGTQVTVSS | high polyreactivity
36 | QVQLVESGGGLVQAGASLRLSCAASGNIFGLYAMGWYRPAPGKERELVAAISDGVSTNYADSVKGRFTISRDNAKITVYLQMNSLKPEDTAVYYCAADQEGYGNWDSEYDYWGQVTQVTVSS | low polyreactivity
37 | QVQLVESGGGLVQAGASLRLSCAASGNILVGNDMGWYRQAPWKERELVAAISSGDTTSYADSVKGRFTISRDNAKNTVYLQMNSLKPEDTAVYYCAVDRSLSPFAYDYWGQGTQVTVSS | low polyreactivity
38 | QVQLVESGGGLVQAGASLRLSCAASGRIFRYNAMGWYRQAPGKERELVAAISSGGSRNYADSVKGRFTTSRDNSKNTVYLQMNSLKPEDTAVYYCNAESVHRYPGWGYDYWGHGTQVTVSS | low polyreactivity
39 | QVQLVESGGGLVQAGASLRLSCAASGRNFHTYGMGWYRQAPGKESELVAAITWTGGSTYYADSVKGRFTISRDNAKNTVYLQMNSLKPEDTAVYYCAADYPRDIIGSMDYWGQGTQVSVSS | low polyreactivity
40 | QVQLVESGGGLVQAGASLRLSCAASGRTFRYYAMGWYRQEPGKERELVAAITSGGSTYYADSVKGRFTISRDNAKKTVYLQMNSLKPEVTAVYYCAAVPAGLWGTYPQFRYGYWGQGTQVTVSS | high polyreactivity
41 | QVQLVESGGGLVQAGASLRLSCAASGRTFWKYVMGWYRQAPGKDRLLVAVISRPAGSTYYADSVKGRFTISRDNAKNTVYLQMNSLKPEDTAVYYCAKRPKNKPVLGDFDHWGQGTQVTVSS | low polyreactivity
42 | QVQLVESGGGLVQAGASLRLSCAASGSIFGVNAMGWYRQAPGKERELVAAISVSGGRTYYADSVKGRFTISRDNAKNTVYLLMNSLKPEDTAVYYCAATTYIWPYDYWGQGTQVTVSS | low polyreactivity
43 | QVQLVESGGGLVQAGASLRLSCAASGSIFRRNAMGWYRQAPGKERELVAAISYRGGSTNYADSVKGRFTISRDNAKNTVYLQMNSLKPEDTAVYYCAAKIYRSSGQGMDYWGQGTQVTVSS | low polyreactivity
